# T1: human neuromedin U (NMU), bioactive processed 25 amino acid form (human, C-terminal amidation (-NH2))
# T1 construct: In the serum ELISAs the target is endogenous circulating human NMU; also called human NMU; NMU-25
# T1 peptide: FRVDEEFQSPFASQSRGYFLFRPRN
# Biological target: T1, human neuromedin U (NMU), bioactive …
# Assay: not described
row,Binder,binding result
1,"anti-NMU monoclonal antibody 2A16 (antibody, V domains shown, Monoclonal antibody from a mouse hybridoma) VH: QIQLVQSGPELKKPGETVKISCKASGYTFTKHGMNWMKQAPGKGLKWMGWINTNTGEPTYSEEFKGRFAFSLETSASTAYLQINNLKNEDTATYFCARTGRYGVDYWGKGTSVTVSS VL: DIQMTQSPSSLSASLGERVSLTCRASQDIGSNLNWIQQEPDGTIKRLIYATSTLDSGVPKRFSGSRSGSDYFLTISSLESEDFVDYYCLQFDSSPLTFGAGTKLELK",binds
2,"anti-NMU monoclonal antibody C578 (antibody, V domains shown, Monoclonal antibody from a mouse hybridoma) VH: EVQLQQSGAELVRSGASVKLSCAASGFNIKDYYIHWVKQRPEQGLEWIGWIDPENGDNECAPKFQGKATMTADTSSNTAYLQLTSLTSEDTAVYYCNAGKGDYWGQGTTLTVSS VL: NIVMTQSPSSLAMSIGQKVTMSCRSSQSLLNSSNQKNYLAWYQQKPGQSPKLLVYFASTRESGVPARFIGSGSGTDFTLTISSVQAEDLADYFCQQHYSTPFTFGSGTKLEIK",binds
